Patent publication CN111423507A (CAS CENTER FOR EXCELLENCE IN MOLECULAR CELL SCIENCE, dated 2020)

Columns and labels:
[1] = biological target: 全长1968HongKong H3N2 HA (义翘神州 Cat:VG40116-NH, N端His标签, 293T表达) (Influenza A virus …, UniProt Q91MA7 17-566); assay: Western blot of full-length HA expressed in 293T cells
[2] = biological target: A/HongKong/01/1968(H3N2)HA蛋白 (Influenza A virus …, UniProt Q91MA7 17-530); assay: ELISA, native HA coated at 1 ug/ml, antibody 5 ug/ml
Chain of A/HongKong/01/1968(H3N2)HA蛋白 (Q91MA7 17-530 limits assumed): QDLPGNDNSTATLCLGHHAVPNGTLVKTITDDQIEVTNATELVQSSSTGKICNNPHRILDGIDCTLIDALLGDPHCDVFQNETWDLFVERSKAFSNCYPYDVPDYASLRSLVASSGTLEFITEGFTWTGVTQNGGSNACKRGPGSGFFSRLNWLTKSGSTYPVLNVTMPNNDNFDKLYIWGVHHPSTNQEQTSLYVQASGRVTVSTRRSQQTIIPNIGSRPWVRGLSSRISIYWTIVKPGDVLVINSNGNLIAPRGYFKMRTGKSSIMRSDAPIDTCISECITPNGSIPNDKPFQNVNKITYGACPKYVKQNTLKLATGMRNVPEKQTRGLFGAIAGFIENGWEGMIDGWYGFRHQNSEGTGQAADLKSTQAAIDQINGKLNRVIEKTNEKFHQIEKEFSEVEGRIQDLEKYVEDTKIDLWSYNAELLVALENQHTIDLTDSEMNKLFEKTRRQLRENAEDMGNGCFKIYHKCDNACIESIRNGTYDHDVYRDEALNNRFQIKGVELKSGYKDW

Chain of 全长1968HongKong H3N2 HA (义翘神州 Cat:VG40116-NH, N端His标签, 293T表达) (Q91MA7 17-566 limits assumed): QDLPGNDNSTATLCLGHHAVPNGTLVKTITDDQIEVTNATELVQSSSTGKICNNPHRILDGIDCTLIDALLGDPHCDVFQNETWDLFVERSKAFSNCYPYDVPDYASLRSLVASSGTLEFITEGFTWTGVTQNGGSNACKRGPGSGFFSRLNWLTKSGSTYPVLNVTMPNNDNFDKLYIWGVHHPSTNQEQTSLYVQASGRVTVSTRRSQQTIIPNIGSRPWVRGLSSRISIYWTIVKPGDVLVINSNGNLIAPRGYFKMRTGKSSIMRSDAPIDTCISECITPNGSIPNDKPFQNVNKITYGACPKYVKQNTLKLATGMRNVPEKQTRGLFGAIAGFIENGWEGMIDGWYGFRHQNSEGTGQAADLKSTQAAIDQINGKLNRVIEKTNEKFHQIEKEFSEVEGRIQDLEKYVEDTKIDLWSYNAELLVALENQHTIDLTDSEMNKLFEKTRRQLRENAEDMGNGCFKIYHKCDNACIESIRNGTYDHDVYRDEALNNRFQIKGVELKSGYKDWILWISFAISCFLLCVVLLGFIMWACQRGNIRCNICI

B1: 12mAb (antibody, V domains shown)
VH: EVQLVESGGGLVQPGGSLRLSCAASGFTFSTYNMNWVRQAPGKGLEWLSYISTSSNTIYYADSVKGRFTISRDNAKNSLFLQMNSLRDEDTAVYYCARDRGCSSTNCYVVGYYFYGMDVWGQGTTVTVSS
VL: DIQMTQSPSSVSASVGDRVTITCRASQGISSYLAWYQLKPGRAPKLLIYGATRLQSGVPSRFSGSGSGTDFTLTISGLQPEDFATYHCQQADSFPLTFGQGTRLEIK
Does B1 bind [1]?
Result: binds

Does B1 bind [2]?
Result: binds
